Test results published in the DeepSol protein solubility set.

Assay: soluble on expression in E. coli; label from the status in PepcDB or PDB records

Soluble on expression in E. coli, not soluble:
MSKNCKSCKDLKNRGIDVDCCFEIGDKECASLGDDKGFNGKKNDCQDMHDLNDCLLGRADSALDIHDDCDWKGYLKKLVSTLYNLQKMTICAICGIWKKIHWIEEQIEKIWKKIAKMEDDIDNIASQNWEINTRYGIQESTKGMSVSINRGNGDFIFRWKDWGDAEQTQYLGEGEIRGTVNFGMRPSSNASFDWQVRDVVIQNLSYKTNNIRSVPFTLHLYLTRAGEQEIYTKSHDTTKSFNDNINKTLKLNNNGNVGISSSSGWLQFLEFFNDGPVADDRANLQIEFKNNGKPKPPRYI
NKNWFVSFKGTFTYAHNEITQYDESPKYPWQSKIGVSANKNAIYIADGLFIDAADIANHQQQLGAAVIPGDIKYINISRDWYGYDDNLTDTDDWVWAKHPGVPEIVYGFGPSIKWKNLDFSFFFQGIARTSFMVKDFHPFGDSMLRNVLSWVADERWSPDNQNTNATYPRLSRKTNNNNNKLSSYWERNGAFLKLKNAEIGYTYKNMRLYISGSNLMTFAPFDLWDPEQGGGSGLSYPTQRVFNIGFQMTINNK
MLKSIILLICAHCAFSDRLDAGSQADCVAAANKIYNNEWGFDHKLVYDKELEPFAAETPCGIAYLQNGLAEVGSGGAHTSVNLREEHTRIACVPKKCGGVEVACAVGGPSMALNLKRKIRKLRQIRCLRTFGATVTLKN
MAGDPMDTISRISSYVAGKVVKYPGLKYIAGVAISYAIHKFEESGLWRSVPIDKYIQLPRELEHHHHHH
MGSDKIHHHHHHMALLFSGGTMSQVQSGILPEHCRAAIWIEANVKGEVDALRAASKTFADKLATFEAKFPDAHLGAVVAFGNNTWRALSGGVGAEELKDFPGYGKGLAPTTQFDVLIHILSLRHDVNFSVAQAAMEAFGDCIEVKEEIHGFRWVEERDLSGFVDGTENPAGEETRREVAVIKDGVDAGGSYVFVQRWEHNLKQLNRMSVHDQEMVIGRTKEANEEIDGDERPETSHLTRVDLKEDGKGLKIVRQSLPYGTASGTHGLYFCAYCARLHNIEQQLLSMFGDTDGKRDAMLRFTKPVTGGYYFAPSLDKLMAL
QNPSIYCAGHGIYWVAYDMGTALSTGPVKVEAETSGDIDGRIYGIVLAAVYEDKEGQDTRYWVEEGNINLHDKGRSEEASSTHDEAYADFSGKVDVDRYKTANLAAVYLCGSPGLGDSLYFNDEQLSDGENSNDIANSKSYFDLKFFDVLDFLAEDDNELRFQRDDEDYLHPVFAALSLGTEEEGSSDLIVSGVTLPVLYAGQENIIKANIKNIGRDSAYGFQAALYADNEIVSTASVSSLSSGKSKTIDFNWKPGRSGEHVLKVSVDYTNRKKELCEINNWNIPFLANIIDLTPPEIEIDSPLDGSSVSSGYLKVSGTVEDTSRNTTVDVNGQKALLADKRWSADIPVAPGPNKIVVSAVDGTNNTGKEFILVTGISSGSGNNESFVSGGEREHVNRKVNAEPVSSTIPVYRSDI
GPGSMGQHSAKEFRGSRRGESNSGVFPLGPGHAHVGMGSTKKPLGIHTSAVQNNVLRQRNQHRRVMHEEGGSHPRGQEADGSHGEDIAEEKFPVVIRYAAHDVRSLLSSNEKVYVAVESLNWSKLPMTASEDSFYAIVELPQGPQRFRFVVGETEVVDTAQPIEDIAEGTPLLEPRGDVGHKGETRANVIHVNKALLLTKEDEEVPDDGSGWGQEEIIHKEDRKHPPIMPVHLRYTPVNTPLTAARCALDGFMRTTDEDTVSPENLPIPLSVTVNHVYFQRREDHCVTAMTTRFCNKYSTMVYYSKAEPTASLQ
EQALSDQLRFVEALTDCMPPPLYVRDVNGRMLSCNRSYLQSVGLSSEEVMNRTVLELPMENFETAPEFHRSYLMAMREGRTIEAVYPVALGGRERWIDHWIQPFRDSSGTIRGVICGWLDITEHRQLIDELEEAKNLADEASRAKTTFLATMSHEIRTPMNAVIGILELALKRAETGRVDRSSIEIAYASAKSLLELIGDILDIARIESGRLSLSPKRANLRELVESVARVFEGLARQKRLSLVLEIDSSINGDVLLDAMRFKQILSNLVSNAIKFTDEGSIRIRIDGRQVEPSLLQVNLCVEDTGIGISLGDQQQLFRPFAQVNRNLQNTEGTGLGLVISRSLCEMMGGRLVMSSELGQGTRIDVELRLQVLEPIVENVRAIPLGSRQARRLQVLVVDDHAVNRQILHQQLSFLGHDVEEAENGLSALNLWHGQPFDMVITDCHMPLMSGSDLARSIRQEERENGEEPVVIIGLTADAQPEEIERCIQAGMNECLIKPIGLDVLEERLLALGFAADELPVTIDAEPVAIPTAPRLYDLDSLHALTGGEPTMLRRLLDELLTSNRKDLETLEGLVQRQETGELAELAHRIKGAARVVRGEQLVESCRRLEDACLSPNASFAWVEECAVGVKLAILALDESLVEEC
MTESDDHKLVLAISSRALFDLRDSHAVYMAEGVEAYRKYQIEHEDEILERGDAFTLVEKLLNLNASLSKARVEVVLVSRNSADTGLRVFNSIQHYGLDIARAAFAGGRSPYPYLAAFGCHLFLSTHAEDVRSALDAGFAAATILSGGARRAASAELRIAFDGDAVLFSDESERVYQSGGLAAFQASERESAREPLRGGPFKPFLAALNQLQREFPDASCPIRTALVTARSAPAHERVIRTLREWDIRLDESLFLGGLQKSAFLEAFAADVFFDDQPGHCEKAREVVATGHVPHGISNEIIPFDGGGAAALEHHHHHH
MSFDANIATQYYILMTIKTFRCADPETLFKLGRVARFVNIERPALRKLKQLDLARCIEDIRVPPANRPEILKGDRAGQHSIRINDQWRVCFRWTGTDAEDVEIVDYH
MGSDKIHHHHHHVTFFERYSRVLFERYQGKVKYWLTFNEINGAQFMPMLSLGMAVREDENMLQSTYQGLHHQFVASSLATKAAREIDPTMQIGCMLIAAPVYPFSSNPVDVQFALEEERMMNYFCGDVHVRGAYPAFAGRFFSENNIELVVEDGDLELLRDYTVDFFSLSYYMSRTEKAEKDGNEAGGNIMSGVKNPYLKASDWGWEINPDGLRIILNKLYDRYQIPLFIVENGLGAYDEIIASNGATLTQTSVSK
MGSDKIHHHHHHMLSLGLADSRAISKANSGSERHVREVIKRLSLRYKLYYLPTTHAFLDAISEDQLKEIKKFAKVPSFFEYLLDKKLGKVSLLRELFTFSPLAKELVREYEREIGILDFIYVPHTYRIQLMPSILFSKLSRGKYGMLLMTDPHNSLLEKESFFKCVNVWSKIWFSRKSAIEFCSFQRLQNIAFLLKAIKTKPSFISVMNKCALNYTGLPKYFNTKVLSPPHAFNNLALKYRNFDKEDYLVFLGRINTAKGANEALEVGKHVKLKMIGYKEQEFIVKQARSFGIEVIENVSEEEKFEILSKARALVLPSHQESFSVTILEALAVGTPVITYDLPSLTSTYNFKPVFFVKEFDVKGLVNTALEVYNMKKIEEMFNDERLEEFIKMHSSWDNVSNAVDKLITEAIQE
MSIRILPENEIKPSASAFEIPPLLFANPKNLYTRRAKRLRELAKNNPLRDYLEFAAHLVDIQLTLLETAPIGNYAEKLTAYLTENQGQKPLNKQQFARDEKWLELLLALIKQCKPYATGAILTTLEFLEKASYAELNNLADHLLNERYEQVSPDQSVFIWLALSLYWTQLAQQLPRHTQAEIGERHTCPVCGSAPITSVIHLDKTQGLRYLHCALCESEWNMTRAQCSNCDESGDLNYWSFDTVEAPIKAESCGDCHSYLKVLYQEKDPYVEPLADDLASLMLDIEMEQKGFVRSGLNPFLFSIE

Soluble on expression in E. coli, soluble:
MSLEEIETDVLVIGGGPGGMSAAINAGKYGAKVLLVDENPFLGGQLVKQTHRFFGSAKERAGTRGIKIAGILEEELNSIENVEVRRETRVFGIYNGEAGAYQRLNDDEGKLLRIKAKKIVVATGAYERTLIFENNDLPGVYGAGGVQTLMNVYGIKPGNMGLIVGSGNVGLILTYQLMQAGVNVAAIVEAMPRIGGYFVHAAKVRRLGVPIYVRHTILKAIGRKSVEGAVIAQLDDRWQPIPGTEKEIKCDFICVAVGLSPTHELLYQAGCEMKFVPELGGIVPLRTRFNETSVKGLYVAGDVAGIEEATAAIMEGRIAGIHAAVTLGYGGEEAKKELDEAVKEIEEFRAGPFGERIVCGLEKCTLESEGHHHHHH
MRKLAAFLGLVGLLSLGLAQSAQEILDRVEKNLSTPWQATVQGRIQGPGGEEELLARVYALPQARLFRVEFLKPGSLEGNFTVITEKEVWNYLYLTNQLVISPREKAKIQGLGFAPQGLGDLKALSEQVDLRLEGEVRLPEGMAWKLVGRSKENQGFAAMELYILKADPRPLRFVFLDEKGKVLADLKVVEFKRTNLTEAQLKRYPKDAQVVRR
SNADPKEGVQYEVLSTSLENDGMAPVTEVFALSCGHCRNMENFLPVISQEAGTDIGKMHITFNQSAHIASMFYYAAEMQVDGAPDHAFMEDLFAATQMGEGTTLTEQQEAYSKAFTSRGLVSPYDFNEEQRDTLIKKVDNAKMLSEKSGISSVPTFVVNGKYNVLIGGHDDPKQIADTIRYLLEK
MADFDNLFDAAIARADETIRGYMGTSATITSGEQSGAVIRGVFDDPENISYAGQGVRVEGSSPSLFVRTDEVRQLRRGDTLTIGEENFWVDRVSPDDGGSCHLWLGRGVPPAVNRRR
MAHRNTYEAVLHKIQVGSPEDGNGAIRILQLSDLHLEKLSISPDDLYEKLRGEPIDFIALTGDFLDREASIPKLGPYLTALKKLQPAYGMYAVFGNHDYVLQGEPFERLKATLEEHGCIVLQNEMKTITVHGQTVNIIGIDDFYTRRSNMKKAYAGVKDGINIVLTHDPDIVPHMGAYHFDYLLSGHFHGGQIHWPKPYHLAKMSKTLTKRNMIKGYHEWEGKPFYINEGLGQTGVNIRVGSKPEVTLHLLSLPSVAQSETVKAVLEHHHHHH
ELYGASPDIDLGTGPTPTLGPVTPEICKQDIVFDGIAQIRGEIFFFKDRFIWRTVTPRDKPMGPLLVATFWPELPEKIDAVYEAPQEEKAVFFAGNEYWIYSASTLERGYPKPLTSLGLPPDVQRVDAAFNWSKNKKTYIFAGDKFWRYNEVKKKMDPGFPKLIADAWNAIPDNLDAVVDLQGGGHSYFFKGAYYLKLENQSLKSVKFGSIKSDWLGC
GSSGSSGVSSQETQGGPLAPMTGTIEKVFVKAGDKVKAGDSLMVMIAMKMEHTIKSPKDGTVKKVFYREGAQANRHTPLVEFEEEESDKRESESGPSSG
MVYVAVLANIAGNLPALTAALSRIEEMREEGYEIEKYYILGNIVGLFPYPKEVIEVIKDLTKKENVKIIRGKYDQIIAMSDPHATDPGYIDKLELPGHVKKALKFTWEKLGHEGREYLRDLPIYLVDKIGGNEVFGVYGSPINPFDGEVLAEQPTSYYEAIMRPVKDYEMLIVASPMYPVDAMTRYGRVVCPGSVGFPPGKEHKATFALVDVDTLKPKFIEVEYDKKIIEERIRAEGLPEEIIKILYHGGRP
MGRNKEFDTALVLHRAIEVFGEYGYEGTSLQDLLSHLGIARQSLYDTYGTKRDLFLSAVKSYLEGKNAAVMERLEAPGSVKEAIRDIFQEGVNALRDPERAKACYIINSAIEQIPHDPELARYFERQSKQLEDAFYHGLLRAKDQGELNGEDTDISALARYLNQSRLSLTFIAKVTADMDRLQDHVDVSLSVLD
MPSENPIGKTMKSIDEQSLHNARRLFESGDIDRIEVGTTAGLQQIHRYLFGGLYDFAGQIREDNISKGGFRFANAMYLKEALVKIEQMPERTFEEIIAKYVEMNIAHPFLEGNGRSTRIWLDLVLKKNLKKVVNWQNVSKTLYLQAMERSPVNDLELRFLLKDNLTDDVDNREIIFKGIEQSYYYEGYEKG
